Test results from doi:10.1101/864769.

Target: CP-capped actin filament barbed ends (not stated | chicken) (UniProt P60709)
Experiment: single-filament uncapping assay

With “mouse twinfilin-1 (from UniProt Q91YR1 1-350) (natural protein)” the Kd was 300 nM.
